The chains are these.
B1: P282BR9P1357_E5 (designed binder)
chain: LPAPKNLVVSRVTEDSARLSWWPRKYQRPFDSFLIQYQESEKVGEAIVLTVPGSERSYDLTGLKPGTEYTVSIYGVDIEWIGNRPIASNPLSAIFTT
notes: FN3 domain
B2: P283AR9P1362_D6 (designed binder)
chain: LPAPKNLVVSRVTEDSARLSWAKRPGAFDSFLIQYQESEKVGEAIVLTVPGSERSYDLTGLKPGTEYTVSIYGVDVKYDIDSRPISSNPLSAIFTT
notes: FN3 domain
B3: P283AR9P1362_F12 (designed binder)
chain: B2 chain with K23R, R24N, P25I, G26T, A27S
notes: FN3 domain
B4: P283AR9P1362_E9 (designed binder)
chain: B2 chain with A22V, K23P, R24S, G26W, A27G
notes: FN3 domain
B5: P283AR9P1362_F2 (designed binder)
chain: B2 chain with A22R, R24K, P25D, G26H, A27P
notes: FN3 domain
B6: P283AR9P1362_G11 (designed binder)
chain: B2 chain with A22R, R24E, P25A, G26T, A27S
notes: FN3 domain
B7: P282BR9P1357_D2 (designed binder)
chain: LPAPKNLVVSRVTEDSARLSWIKDGHPRHFDSFLIQYQESEKVGEAIVLTVPGSERSYDLTGLKPGTEYTVSIYGVDVVYDRGQLISSNPLSAIFTT
notes: FN3 domain
B8: P283BR9P1363_C8 (designed binder)
chain: LPAPKNLVVSRVTEDSARLSWAKTSDLHPLFDSFLIQYQESEKVGEAIVLTVPGSERSYDLTGLKPGTEYTVSIYGVDVKWEGNRPVASNPLSAIFTT
notes: FN3 domain
B9: P282BR9P1357_H3 (designed binder)
chain: B8 chain with A22K, T24R, S25E, D26Y, L27Q, H28D, L30G
notes: FN3 domain
B10: P282BR9P1357_C4 (designed binder)
chain: B8 chain with K5N, A22P, K23F, T24V, D26Q, L27N, H28K, L30H
notes: FN3 domain
B11: P283BR9P1363_E4 (designed binder)
chain: B8 chain with A22I, T24S, S25E, D26T, L27S, H28Q, L30A
notes: FN3 domain
B12: P283BR9P1363_B6 (designed binder)
chain: B8 chain with A22Q, K23R, T24H, L27A
notes: FN3 domain
B13: P282BR9P1357_D12 (designed binder)
chain: LPAPKNLVVSRVTEDSARLSWGQYITAFSFDSFLIQYQESEKVGEAIVLTVPGSERSYDLTGLKPGTEYTVSIYGVDVAWFQGKPTWSNPLSAIFTT
notes: FN3 domain
B14: P282BR9P1357_A9 (designed binder)
chain: LPAPKNLVVSRVTEDSARLSWKANRTTDLHFDSFLIQYQESEKVGEAIVLTVPGSERSYDLTGLKPGTEYTVSIYGVDVQYDGQQPLYSNPLSAIFTT
notes: FN3 domain
B15: P283BR9P1363_A10 (designed binder)
chain: LPAPKNLVVSRVTEDSARLSWQRADDILPYFDSFLIQYQESEKVGEAIVLTVPGSERSYDLTGLKPGTEYTVSIYGVDVKYDIDSRPISSNPLSAIFTT
notes: FN3 domain
B16: P282BR9P1357_B2 (designed binder)
chain: LPAPKNLVVSRVTEDSARLSWNPSEDPQRFDSFLIQYQESEKVGEAIVLTVPGSERSYDLTGLKPGTEYTVSIYGVDVKWEGNRPVASNPLSAIFTT
notes: FN3 domain
B17: P282BR9P1357_C10 (designed binder)
chain: B16 chain with N22W, P23S, S24N, E25D, D26N, P27R, Q28P, R29I
notes: FN3 domain

Experimental findings from patent US20210032312A1 (Janssen / Centocor, published 2021) are described below.

Changes are numbered by the printed parent chain.

For one assay, the target named is T1, In house human CD8A-Fc (human, UniProt P01732 22-182, limits assumed).
T1 construct: Captured on goat anti-human Fc on a ProteOn GLC chip; also called hCD8A-Fc; recombinant human CD8 alpha; not shown: linker with flag (and polyhistidine) tag and Fc of human IgG1
T1 sequence (P01732 22-182 limits assumed): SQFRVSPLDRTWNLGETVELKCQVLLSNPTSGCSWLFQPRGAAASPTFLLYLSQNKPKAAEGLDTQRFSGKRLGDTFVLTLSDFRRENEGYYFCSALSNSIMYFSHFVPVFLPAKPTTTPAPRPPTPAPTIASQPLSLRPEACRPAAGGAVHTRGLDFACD
In words: SPR (ProteOn), captured hCD8A-Fc. How it is done: Purified anti-CD8A FN3 domains were subjected to off-rate analysis using a Proteon surface plasmon resonance instrument in order to pick clones with the slowest off-rates for further characterization.
The immobilized GAH-Fc IgG densities averaged about 6000 Response Units (Ru) with less than 1% variation among different channels. In house human CD8A-Fc was captured in vertical orientation at 3 different ligand densities, 10, 5, 2.5 μg/ml for 5 minutes at 30 ul/minute flowrate. All FN3 domains were normalized to a 3 μM concentration, and tested for binding in horizontal orientation. All 6 analyte channels were used for FN3 domains to maximize the screening throughput. The dissociation phase was monitored for 15 minutes at a flow rate of 100 μl/min using PBST as running buffer. […] Data analyses were performed using Bio-Rad ProteOn Manager software (version 3.1.0.6). Raw data were double referenced by subtraction of the interspot (empty chip surface, no protein immobilized or captured) signals to correct the non-specific binding of the FN3 domain to the pre-coated GAH-Fc IgG surface, followed by a double correction using empty channel L6 where no hCD8A-Fc was captured. The processed binding data were locally fit to a 1:1 simple Langmuir binding model to extract the koff for each FN3 domain binding to captured hCD8A-Fc.
On to B1, for which the koff (usually the first-order rate constant of dissociation) worked out at 0.00021 s⁻¹.

Turning to B2, the koff came to 2.64e-05 s⁻¹.

For the molecule B3, the koff is 7.28e-05 s⁻¹.

As for B4, the koff turned out to be 0.000327 s⁻¹.

B5 yielded a koff of 0.00211 s⁻¹.

As to B6, the koff came out at 0.000102 s⁻¹.

For B7, the koff turned out to be 0.00105 s⁻¹.

B8 returned a koff of 0.000335 s⁻¹.

As for B9, the koff turned out to be 0.000285 s⁻¹.

B10 came in with a koff of 0.000127 s⁻¹.

Molecule B11 yielded a koff of 0.000329 s⁻¹.

B12 yielded a koff of 0.000269 s⁻¹.

B13 yielded a koff of 8.76e-05 s⁻¹.

B14 yielded a koff of 0.00059 s⁻¹.

As for B15, the koff stood at 0.00036 s⁻¹.

B16 displayed a koff of 0.0001 s⁻¹.

Molecule B17 registered a koff of 0.000458 s⁻¹.

The target of a further assay is T2, cynomolgus monkey CD8A on primary cynomolgus monkey CD8+ T cells (cynomolgus monkey, UniProt P01732 23-235 (human entry)).
T2 construct: also called Cyno CD8alpha
T2 sequence (P01732 other isoform, or with tags, fused parts or gaps limits assumed): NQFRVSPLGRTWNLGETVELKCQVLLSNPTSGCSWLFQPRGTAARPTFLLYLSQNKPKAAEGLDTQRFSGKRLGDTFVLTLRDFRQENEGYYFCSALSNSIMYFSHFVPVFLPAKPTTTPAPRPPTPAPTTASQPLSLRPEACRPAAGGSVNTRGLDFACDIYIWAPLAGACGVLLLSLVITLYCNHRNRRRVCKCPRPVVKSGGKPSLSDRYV
The experiment in a line: flow cytometry, cyno CD8+ T cells, 2 uM FN3. The method, then: (§1) Binding of the 190 ELISA hits to human and cynomologous monkey primary CD8 T cells was assessed by flow cytometry. The FN3 domain molecules were diluted to 2 μM and 0.2 μM in PBS and incubated with human or cynomologous monkey CD8+ T cells in 96-well format. After 1 hour at 4 C, the cells were washed once with PBS and then resuspended with an anti-FN3 domain antibody (PAB25) solution. Following this incubation, the cells were washed twice with PBS and a PE conjugated secondary antibody and a viability dye were added. Finally, cells were washed and resuspended in PBS for flow cytometric analysis using a BD Canto Instrument. Cells were gating on live cells and median fluorescence intensity of the bound Centyrins (PE channel) was calculated using Cytobank software.
Background: Flow cytometry measures light scatter and fluorescence of single cells or particles in a stream.
Regarding B1, the “Cyno T-cell Binding 2 uM (MFI)” value amounted to 10600 MFI.

On to B2, for which the “Cyno T-cell Binding 2 uM (MFI)” value was determined as 33500 MFI.

On to B3, for which the “Cyno T-cell Binding 2 uM (MFI)” value turned out to be 26300 MFI.

Consider B4, for which the “Cyno T-cell Binding 2 uM (MFI)” value stood at 15900 MFI.

As for B5, the “Cyno T-cell Binding 2 uM (MFI)” value was found to be 26400 MFI.

For the molecule B6, the “Cyno T-cell Binding 2 uM (MFI)” value was 32500 MFI.

For B7, the “Cyno T-cell Binding 2 uM (MFI)” value was 25800 MFI.

Regarding B8, the “Cyno T-cell Binding 2 uM (MFI)” value came to 37200 MFI.

As to B9, the “Cyno T-cell Binding 2 uM (MFI)” value was found to be 27100 MFI.

Consider B10, for which the “Cyno T-cell Binding 2 uM (MFI)” value was 41600 MFI.

In the case of B11, the “Cyno T-cell Binding 2 uM (MFI)” value amounted to 17700 MFI.

B12: the “Cyno T-cell Binding 2 uM (MFI)” value came to 37700 MFI.

Regarding B13, the “Cyno T-cell Binding 2 uM (MFI)” value turned out to be 40400 MFI.

For B14, the “Cyno T-cell Binding 2 uM (MFI)” value came to 7280 MFI.

B15: the “Cyno T-cell Binding 2 uM (MFI)” value stood at 27800 MFI.

Take B16: the “Cyno T-cell Binding 2 uM (MFI)” value is 18000 MFI.

As to B17, the “Cyno T-cell Binding 2 uM (MFI)” value worked out at 24500 MFI.

In the next assay the target is T3, human CD8 alpha (CD8A) on primary human CD8+ T cells (human, UniProt P01732 22-235).
T3 construct: whole, on cells; also called hCD8A
T3 sequence (P01732 22-235): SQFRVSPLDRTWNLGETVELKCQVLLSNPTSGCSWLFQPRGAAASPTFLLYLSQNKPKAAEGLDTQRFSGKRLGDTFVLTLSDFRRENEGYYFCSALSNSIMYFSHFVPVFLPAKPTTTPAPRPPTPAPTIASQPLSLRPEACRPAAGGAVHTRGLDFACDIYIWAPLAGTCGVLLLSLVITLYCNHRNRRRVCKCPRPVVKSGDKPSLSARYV
In words: flow cytometry, human CD8+ T cells, 2 uM FN3. The method, then:
as §1
Take B1: the “Human T-cell Binding 2 uM (MFI)” value was determined as 6730 MFI.

Take B2: the “Human T-cell Binding 2 uM (MFI)” value came out at 13700 MFI.

As to B3, the “Human T-cell Binding 2 uM (MFI)” value was determined as 8970 MFI.

As to B4, the “Human T-cell Binding 2 uM (MFI)” value worked out at 6180 MFI.

For B5, the “Human T-cell Binding 2 uM (MFI)” value came to 9620 MFI.

Regarding B6, the “Human T-cell Binding 2 uM (MFI)” value is 12700 MFI.

B7: the “Human T-cell Binding 2 uM (MFI)” value worked out at 9610 MFI.

With B8, the “Human T-cell Binding 2 uM (MFI)” value was found to be 16500 MFI.

With B9, the “Human T-cell Binding 2 uM (MFI)” value is 11100 MFI.

Consider B10, for which the “Human T-cell Binding 2 uM (MFI)” value is 16800 MFI.

Consider B11, for which the “Human T-cell Binding 2 uM (MFI)” value was found to be 10800 MFI.

Turning to B12, the “Human T-cell Binding 2 uM (MFI)” value came to 14500 MFI.

In the case of B13, the “Human T-cell Binding 2 uM (MFI)” value came out at 15300 MFI.

Take B14: the “Human T-cell Binding 2 uM (MFI)” value was 3120 MFI.

For the molecule B15, the “Human T-cell Binding 2 uM (MFI)” value stood at 7890 MFI.

In the case of B16, the “Human T-cell Binding 2 uM (MFI)” value amounted to 5930 MFI.

As to B17, the “Human T-cell Binding 2 uM (MFI)” value stood at 9780 MFI.

Another assay has as its target T2, cynomolgus monkey CD8A on primary …. The experiment in a line: flow cytometry, cyno CD8+ T cells, 0.2 uM FN3. How it is done:
as §1
Turning to B1, the “Cyno T-cell Binding 0.2 uM (MFI)” value is 4100 MFI.

With B2, the “Cyno T-cell Binding 0.2 uM (MFI)” value is 7720 MFI.

As for B3, the “Cyno T-cell Binding 0.2 uM (MFI)” value stood at 3790 MFI.

In the case of B4, the “Cyno T-cell Binding 0.2 uM (MFI)” value was determined as 2840 MFI.

As for B5, the “Cyno T-cell Binding 0.2 uM (MFI)” value was 5520 MFI.

On to B6, for which the “Cyno T-cell Binding 0.2 uM (MFI)” value is 6830 MFI.

Turning to B7, the “Cyno T-cell Binding 0.2 uM (MFI)” value came out at 2520 MFI.

For B8, the “Cyno T-cell Binding 0.2 uM (MFI)” value was found to be 9080 MFI.

Regarding B9, the “Cyno T-cell Binding 0.2 uM (MFI)” value was 5700 MFI.

Take B10: the “Cyno T-cell Binding 0.2 uM (MFI)” value is 7060 MFI.

B11: the “Cyno T-cell Binding 0.2 uM (MFI)” value was 2470 MFI.

Regarding B12, the “Cyno T-cell Binding 0.2 uM (MFI)” value worked out at 6840 MFI.

B13: the “Cyno T-cell Binding 0.2 uM (MFI)” value was 7360 MFI.

With B14, the “Cyno T-cell Binding 0.2 uM (MFI)” value was 1940 MFI.

In the case of B15, the “Cyno T-cell Binding 0.2 uM (MFI)” value worked out at 4100 MFI.

In the case of B16, the “Cyno T-cell Binding 0.2 uM (MFI)” value amounted to 3840 MFI.

Regarding B17, the “Cyno T-cell Binding 0.2 uM (MFI)” value is 5110 MFI.

A further assay has as its target T3, human CD8 alpha (CD8A) on primary human …. The experiment in a line: flow cytometry, human CD8+ T cells, 0.2 uM FN3. How it is done:
as §1
Consider B1, for which the “Human T-cell Binding 0.2 uM (MFI)” value worked out at 2590 MFI.

For the molecule B2, the “Human T-cell Binding 0.2 uM (MFI)” value is 3660 MFI.

As to B3, the “Human T-cell Binding 0.2 uM (MFI)” value amounted to 2620 MFI.

In the case of B4, the “Human T-cell Binding 0.2 uM (MFI)” value was determined as 2010 MFI.

Take B5: the “Human T-cell Binding 0.2 uM (MFI)” value was determined as 1370 MFI.

On to B6, for which the “Human T-cell Binding 0.2 uM (MFI)” value turned out to be 3530 MFI.

With B7, the “Human T-cell Binding 0.2 uM (MFI)” value was 1570 MFI.

As for B8, the “Human T-cell Binding 0.2 uM (MFI)” value was found to be 3740 MFI.

For the molecule B9, the “Human T-cell Binding 0.2 uM (MFI)” value came to 3030 MFI.

Consider B10, for which the “Human T-cell Binding 0.2 uM (MFI)” value was determined as 4220 MFI.

As for B11, the “Human T-cell Binding 0.2 uM (MFI)” value turned out to be 2500 MFI.

As for B12, the “Human T-cell Binding 0.2 uM (MFI)” value was found to be 3450 MFI.

On to B13, for which the “Human T-cell Binding 0.2 uM (MFI)” value was found to be 3900 MFI.

Consider B14, for which the “Human T-cell Binding 0.2 uM (MFI)” value was determined as 1070 MFI.

Regarding B15, the “Human T-cell Binding 0.2 uM (MFI)” value was 2750 MFI.

As for B16, the “Human T-cell Binding 0.2 uM (MFI)” value worked out at 2880 MFI.

On to B17, for which the “Human T-cell Binding 0.2 uM (MFI)” value is 2900 MFI.
